Data as given in patent US20220235123A1 (UNIVERSITY OF TORONTO, published 2022).

T1: recombinant human vascular endothelial growth factor (hVEGF) 121 (human, UniProt P15692 27-147)
T1 construct: mature; also called human VEGF-A121; hVEGF 121 isoform
T1 sequence (looked up): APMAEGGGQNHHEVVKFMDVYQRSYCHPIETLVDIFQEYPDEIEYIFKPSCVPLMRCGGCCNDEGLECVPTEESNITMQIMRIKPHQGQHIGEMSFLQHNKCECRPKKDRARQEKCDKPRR


Legend:
[1] = target: T1, recombinant human vascular endothelial …; assay: Fab-ELISA: Fab titrated on wells coated with 2 ug/mL hVEGF-121, detected with anti-kappa-light-chain-HRP; Kd estimated from EC50
Description: (§1) FIG. 4a-b. […] The bound Fabs were detected with anti-Kappa-light-chain-HRP-conjugated antibody (B).

[2] = target: T1, recombinant human vascular endothelial …; assay: Fab-ELISA: Fab titrated on wells coated with 2 ug/mL hVEGF-121, detected with anti-kappa-light-chain-HRP
Description: as §1

[3] = target: T2, recombinant human VEGF 165 isoform (human, UniProt P15692 27-191); assay: competitive ELISA in solution, 10 pM hVEGF-165, free VEGF read with Quantikine kit
T2 construct: mature
Description: Kd calculated from the data fitted with a 5 parameter asymmetric model with Prism software.

[4] = target: T1, recombinant human vascular endothelial …; assay: SPR, off rate of hVEGF-121 binding

T2 sequence (P15692 other isoform, or with tags, fused parts or gaps): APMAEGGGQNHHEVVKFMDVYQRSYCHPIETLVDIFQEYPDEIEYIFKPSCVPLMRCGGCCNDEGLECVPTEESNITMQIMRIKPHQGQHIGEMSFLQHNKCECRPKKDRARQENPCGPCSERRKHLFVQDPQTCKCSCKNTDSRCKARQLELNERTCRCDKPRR

| Binder | Kd [3] [nM] | koff [4] [s⁻¹] | further results |
| --- | --- | --- | --- |
| FF0124-4 (Fab, V domains shown, also called FF0124-4 F2088) VH: EVQLVESGGGLVQPGGSLRLSCAASGFDLYSYSIHWVRQAPGKGLEWVASIYSYSGYTYYADSVKGRFTISADTSKNTAYLQMNSLRAEDTAVYYCARGGWYALDYWGQGTLVTVSS VL: DIQMTQSPSSLSASVGDRVTITCRASQSVSSAVAWYQQKPGKAPKLLIYSASSLYSGVPSRFSGSRSGTDFTLTISSLQPEDFATYYCQQGYGPFYSLITFGQGTKVEIK |  |  | Kd [1]: 11 nM; EC50 (read off the curve) [2]: ~10 nM |
| Variant 205 (Fab variant of Clone #201) (Fab, V domains shown) VH: EVQLVESGGGLVQPGGSLRLSCAASGFDLFHYSIHWVRQAPGKGLEWVAYIYPSYGYTYYADSVKGRFTISADTSKNTAYLQMNSLRAEDTAVYYCARHAWYYGWGLDYWGQGTLVTVSS VL: DIQMTQSPSSLSASVGDRVTITCRASQAAYGRVAWYQQKPGKAPKLLIYKDSELYAGVPSRFSGSRSGTDFTLTISSLQPEDFATYYCQQRGWYLFTFGQGTKVEIKR | 0.062 |  |  |
| FF03033-5 (Fab, V domains shown, fifth generation Fab from the library based on FF0117-A5) VH: EVQLVESGGGLVQPGGSLRLSCAASGFDLFHYSIHWVRQAPGKGLEWVAYIYPSYGYTYYADSVKGRFTISADTSKNTAYLQMNSLRAEDTAVYYCARHAWYYGWGLDYWGQGTLVTVSS VL: DIQMTQSPSSLSASVGDRVTITCRASQGVGERVAWYQQKPGKAPKLLIYNASHLAGVPSRFSGSRSGTDFTLTISSLQPEDFATYYCQQRGWYLFTFGQGTKVEIK |  | 0.000168 |  |
| Variant 209 (Fab variant of Clone #201) (Fab, V domains shown) VH: EVQLVESGGGLVQPGGSLRLSCAASGFDLFHYSIHWVRQAPGKGLEWVAYIYPSYGYTYYADSVKGRFTISADTSKNTAYLQMNSLRAEDTAVYYCARHAWYYGWGLDYWGQGTLVTVSS VL: DIQMTQSPSSLSASVGDRVTITCRASQDAAYGRVAWYQQKPGKAPKLLIYKASELYAGVPSRFSGSRSGTDFTLTISSLQPEDFATYYCQQRGWYLFTFGQGTKVEIKR | 0.028 |  |  |
| FF03033-8 (Fab, V domains shown, fifth generation Fab with one residue deleted near the end of CDR-L2; the text says FF03046-2 was made from it by putting the tyrosine back) VH: EVQLVESGGGLVQPGGSLRLSCAASGFDLFHYSIHWVRQAPGKGLEWVAYIYPSYGYTYYADSVKGRFTISADTSKNTAYLQMNSLRAEDTAVYYCARHAWYYGWGLDYWGQGTLVTVSS VL: DIQMTQSPSSLSASVGDRVTITCRASQAAYGRVAWYQQKPGKAPKLLIYKASELAGVPSRFSGSRSGTDFTLTISSLQPEDFATYYCQQRGWYLFTFGQGTKVEIK |  | < 1e-06 |  |
| Variant 212 (Fab variant of Clone #201) (Fab, V domains shown) VH: EVQLVESGGGLVQPGGSLRLSCAASGFDLFHYSIDWVRQAPGKGLEWVAYIYPSYGYTYYADSVKGRFTISADTSKNTAYLQMNSLRAEDTAVYYCARHAWYYGWGLDYWGQGTLVTVSS VL: DIQMTQSPSSLSASVGDRVTITCRASQAAYGRVAWYQQKPGKAPKLLIYKASELYAGVPSRFSGSRSGTDFTLTISSLQPEDFATYYCQQRGWYLFTFGQGTKVEIKR | 1.28 |  |  |
| Variant 206 (Fab variant of Clone #201) (Fab, V domains shown, also called SI; No. 3) VH: EVQLVESGGGLVQPGGSLRLSCAASGFDLFHYSIHWVRQAPGKGLEWVAYIYPSYGYTYYADSVKGRFTISADTSKNTAYLQMNSLRAEDTAVYYCARHAWYYGWGLDYWGQGTLVTVSS VL: DIQMTQSPSSLSASVGDRVTITCRASQAAYGRVAWYQQKPGKAPKLLIYDASELYAGVPSRFSGSRSGTDFTLTISSLQPEDFATYYCQQRGWYLFTFGQGTKVEIKR | 0.014 |  |  |
| Variant 213 (Fab variant of Clone #201) (Fab, V domains shown) VH: EVQLVESGGGLVQPGGSLRLSCAASGFDLFHYDIHWVRQAPGKGLEWVAYIYPSYGYTYYADSVKGRFTISADTSKNTAYLQMNSLRAEDTAVYYCARHAWYYGWGLDYWGQGTLVTVSS VL: DIQMTQSPSSLSASVGDRVTITCRASQAAYGRVAWYQQKPGKAPKLLIYKASELYAGVPSRFSGSRSGTDFTLTISSLQPEDFATYYCQQRGWYLFTFGQGTKVEIKR | 0.091 |  |  |
| FF03033-2 (Fab, V domains shown, fifth generation Fab from the library based on FF0117-A5) VH: EVQLVESGGGLVQPGGSLRLSCAASGFDLFHYSIHWVRQAPGKGLEWVAYIYPSYGYTYYADSVKGRFTISADTSKNTAYLQMNSLRAEDTAVYYCARHAWYYGWGLDYWGQGTLVTVSS VL: DIQMTQSPSSLSASVGDRVTITCRASQVAFYNVAWYQQKPGKAPKLLIYDASILNGVPSRFSGSRSGTDFTLTISSLQPEDFATYYCQQRGWYLFTFGQGTKVEIK |  | 0.000236 |  |
| FF03033-3 (Fab, V domains shown, fifth generation Fab from the library based on FF0117-A5) VH: EVQLVESGGGLVQPGGSLRLSCAASGFDLFHYSIHWVRQAPGKGLEWVAYIYPSYGYTYYADSVKGRFTISADTSKNTAYLQMNSLRAEDTAVYYCARHAWYYGWGLDYWGQGTLVTVSS VL: DIQMTQSPSSLSASVGDRVTITCRASQFVGYNVAWYQQKPGKAPKLLIYQASSLAGVPSRFSGSRSGTDFTLTISSLQPEDFATYYCQQRGWYLFTFGQGTKVEIK |  | 0.000146 |  |
| Variant 215 (Fab variant of Clone #201) (Fab, V domains shown) VH: EVQLVESGGGLVQPGGSLRLSCAASGFDLFDYSIHWVRQAPGKGLEWVAYIYPSYGYTYYADSVKGRFTISADTSKNTAYLQMNSLRAEDTAVYYCARHAWYYGWGLDYWGQGTLVTVSS VL: DIQMTQSPSSLSASVGDRVTITCRASQAAYGRVAWYQQKPGKAPKLLIYKASELYAGVPSRFSGSRSGTDFTLTISSLQPEDFATYYCQQRGWYLFTFGQGTKVEIKR | 0.027 |  |  |
| Variant 219 (Fab variant of Clone #201) (Fab, V domains shown, also called SI; No. 9) VH: EVQLVESGGGLVQPGGSLRLSCAASGFDLFHYSIHWVRQAPGKGLEWVAYIYPSYGYTYYADSVKGRFTISADTSKNTAYLQMNSLRAEDTAVYYCARHAWYYGWGLDYWGQGTLVTVSS VL: DIQMTQSPSSLSASVGDRVTITCRASQAAYDRVAWYQQKPGKAPKLLIYKASELYAGVPSRFSGSRSGTDFTLTISSLQPEDFATYYCQQRGWYLFTFGQGTKVEIKR | 0.012 |  |  |
| FF03033-4 (Fab, V domains shown, fifth generation Fab with one residue deleted near the end of CDR-L2; the text says FF03046-1 was made from it by putting the tyrosine back) VH: EVQLVESGGGLVQPGGSLRLSCAASGFDLFHYSIHWVRQAPGKGLEWVAYIYPSYGYTYYADSVKGRFTISADTSKNTAYLQMNSLRAEDTAVYYCARHAWYYGWGLDYWGQGTLVTVSS VL: DIQMTQSPSSLSASVGDRVTITCRASQEGWDRVAWYQQKPGKAPKLLIYSASQLAGVPSRFSGSRSGTDFTLTISSLQPEDFATYYCQQRGWYLFTFGQGTKVEIK |  | < 1e-06 |  |
| FF03033-6 (Fab, V domains shown, fifth generation Fab from the library based on FF0117-A5) VH: EVQLVESGGGLVQPGGSLRLSCAASGFDLFHYSIHWVRQAPGKGLEWVAYIYPSYGYTYYADSVKGRFTISADTSKNTAYLQMNSLRAEDTAVYYCARHAWYYGWGLDYWGQGTLVTVSS VL: DIQMTQSPSSLSASVGDRVTITCRASQPREDRVAWYQQKPGKAPKLLIYRASTLAGVPSRFSGSRSGTDFTLTISSLQPEDFATYYCQQRGWYLFTFGQGTKVEIK |  | 0.000284 |  |
| Variant 220 (Fab variant of Clone #201) (Fab, V domains shown) VH: EVQLVESGGGLVQPGGSLRLSCAASGFDLFHYSIHWVRQAPGKGLEWVAYIYPSYGYTYYADSVKGRFTISADTSKNTAYLQMNSLRAEDTAVYYCARHAWYYGWGLDYWGQGTLVTVSS VL: DIQMTQSPSSLSASVGDRVTITCRASQAAYGDVAWYQQKPGKAPKLLIYKASELYAGVPSRFSGSRSGTDFTLTISSLQPEDFATYYCQQRGWYLFTFGQGTKVEIKR | 0.026 |  |  |
| FF0124-5 (Fab, V domains shown, also called FF0124-5 F2091) VH: EVQLVESGGGLVQPGGSLRLSCAASGFDISSYYMHWVRQAPGKGLEWVASIYSYSGYTYYADSVKGRFTISADTSKNTAYLQMNSLRAEDTAVYYCARHSVYYWYGSYWYYPSSAMDYWGQGTLVTVSS VL: DIQMTQSPSSLSASVGDRVTITCRASQSVSSAVAWYQQKPGKAPKLLIYSASSLYSGVPSRFSGSRSGTDFTLTISSLQPEDFATYYCQQFWAGYGLITFGQGTKVEIK |  |  | Kd [1]: 19 nM; EC50 (read off the curve) [2]: ~20 nM |
| FF0124-6 (Fab, V domains shown, also called FF0124-6 F2094) VH: EVQLVESGGGLVQPGGSLRLSCAASGFDIYYYSMHWVRQAPGKGLEWVASISSYSGYTSYADSVKGRFTISADTSKNTAYLQMNSLRAEDTAVYYCARYPYYYWAFDYWGQGTLVTVSS VL: DIQMTQSPSSLSASVGDRVTITCRASQSVSSAVAWYQQKPGKAPKLLIYSASSLYSGVPSRFSGSRSGTDFTLTISSLQPEDFATYYCQQSGHYHYPFTFGQGTKVEIK |  |  | Kd [1]: 25 nM; EC50 (read off the curve) [2]: ~20 nM |
| FF0124-7 (Fab, V domains shown, also called FF0124-7 F2116) VH: EVQLVESGGGLVQPGGSLRLSCAASGFDLYYSYMHWVRQAPGKGLEWVASISSYSGYTSYADSVKGRFTISADTSKNTAYLQMNSLRAEDTAVYYCARGFYYGGWYGIDYWGQGTLVTVSS VL: DIQMTQSPSSLSASVGDRVTITCRASQSVSSAVAWYQQKPGKAPKLLIYSASSLYSGVPSRFSGSRSGTDFTLTISSLQPEDFATYYCQQHYGPITFGQGTKVEIK |  |  | Kd [1]: 33 nM; EC50 (read off the curve) [2]: ~30 nM |
| FF0124-2 (Fab, V domains shown, seventh Fab of the naive library selection; also called FF0124-2 F2083; FF0124 Fab # 2) VH: EVQLVESGGGLVQPGGSLRLSCAASGFDLYYSSMHWVRQAPGKGLEWVASISPSSSYTYYADSVKGRFTISADTSKNTAYLQMNSLRAEDTAVYYCARYYWWHSPFWAYSGLDYWGQGTLVTVSS VL: DIQMTQSPSSLSASVGDRVTITCRASQSVSSAVAWYQQKPGKAPKLLIYSASSLYSGVPSRFSGSRSGTDFTLTISSLQPEDFATYYCQQSGPLFTFGQGTKVEIK |  |  | Kd [1]: 47 nM; EC50 (read off the curve) [2]: ~50 nM |
